We go through two substances from paper PMC2787765.

In this test the target is αB-crystallin triply substituted analog (serine residues 19, 45 and 59 mutated to aspartic acids) (UniProt P02511). Kind of test: back-scattering interferometry.

In turn, “T4 lysozyme L99A-A130S double mutant (from UniProt P00720 1-164) (enzyme)” came in with a KD1 (high affinity mode) of 0.132 µM; a KD2 (low affinity mode) of 33 µM; a kf1 (forward rate, high affinity mode) of 58500 M⁻¹ s⁻¹; a kf2 (forward rate, low affinity mode) of 2970 M⁻¹ s⁻¹. Further, the kr1 (reverse rate, high affinity mode) was 5.03e-06 s⁻¹ and the reverse rate, low affinity mode (row printed as kr1) is 0.115 s⁻¹.
As to “T4 lysozyme D70N (from UniProt P00720 1-164) (enzyme)”, the KD1 (high affinity mode) was 0.595 µM; the KD2 (low affinity mode) amounted to 29.1 µM; the kf1 (forward rate, high affinity mode) worked out at 25500 M⁻¹ s⁻¹; the kf2 (forward rate, low affinity mode) came out at 2340 M⁻¹ s⁻¹. The substance further had a kr1 (reverse rate, high affinity mode) of 0.0152 s⁻¹ and a reduction in magnitude of the steady-state BSI signal relative to T4L-L99A-A130S of 40%.
